Test results from US20220289848A1.

How the values were obtained:
[1] = molecular target: PD-L1 (UniProt Q9NZQ7); assay: FACS binding, CHO-K1 cells expressing PD-L1; flat curve
[2] = molecular target: CD47 (UniProt Q08722); assay: FACS binding, CHO-K1 cells expressing CD47; flat curve
[3] = molecular target: human PD-L1 on PD-L1 aAPC/CHO-K1 Cells (human) (UniProt Q9NZQ7); assay: cell-based or functional assay
Sequence of human PD-L1 on PD-L1 aAPC/CHO-K1 Cells (human) (Q9NZQ7 19-290): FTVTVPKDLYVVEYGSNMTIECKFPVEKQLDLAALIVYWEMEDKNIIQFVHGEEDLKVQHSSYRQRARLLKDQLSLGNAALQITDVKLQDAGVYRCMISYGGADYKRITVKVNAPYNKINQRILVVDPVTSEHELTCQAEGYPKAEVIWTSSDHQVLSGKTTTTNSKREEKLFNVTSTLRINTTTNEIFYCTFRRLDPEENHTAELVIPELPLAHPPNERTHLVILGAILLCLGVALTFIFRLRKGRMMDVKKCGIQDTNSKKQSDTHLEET

Sequence of PD-L1 (Q9NZQ7 19-290): as above

Substance	EC50 [1]	EC50 [2]	PD-1/PD-L1 blockade bioassay, relative activity (reference) [3]
Human IgG	38.3 nM	0.00446 nM	
Tecentriq biosimilar (antibody)			100%
